Experimental data published in article PMC9537309.

Tests used:
Assay in all cases: FLAG immunoprecipitation and LC/ESI-MS/MS
Conditions in all cases: HEK293T cells, three biological replicates; read off a plot
[1] = biological target: FUBP3
[2] = biological target: HNRNPA2B1
[3] = biological target: ILF3
[4] = biological target: MYH9
[5] = biological target: SART3

Substance: FLAG-tagged DND1 wild-type (Dead End, full-length human protein 1-353) (from UniProt Q8IYX4) R98A
- other: log2 fold change [1]: -2.5
- other: log2 fold change [2]: -1.3
- other: log2 fold change [3]: -1.6
- other: log2 fold change [4]: 0.43
- other: log2 fold change [5]: -2.5
